Results published in patent US20060194739 (published 2006).
Non-standard residues stand in square brackets, D forms with d. No end group written: not given here. *: point of attachment. Trp(5-CN) = N#Cc1ccc2[nH]cc(C[C@H](N)C(=O)O)c2c1; Ac6c = NC1(C(=O)O)CCCCC1; Hexanoyl = CCCCCC(=O)*; Propionyl = CCC(=O)*; Ahx = NCCCCCC(=O)O

B1: VII-57-C (peptide)
chain: Ac-RYYRW[Ahx]-NH2
SMILES: CC(=O)N[C@@H](CCCNC(=N)N)C(=O)N[C@@H](Cc1ccc(O)cc1)C(=O)N[C@@H](Cc1ccc(O)cc1)C(=O)N[C@@H](CCCNC(=N)N)C(=O)N[C@@H](Cc1c[nH]c2ccccc12)C(=O)NCCCCCC(N)=O
B2: VII-51-A (peptide)
chain: Ac-RYYR[Trp(5-CN)]R-NH2
SMILES: CC(=O)N[C@@H](CCCNC(=N)N)C(=O)N[C@@H](Cc1ccc(O)cc1)C(=O)N[C@@H](Cc1ccc(O)cc1)C(=O)N[C@@H](CCCNC(=N)N)C(=O)N[C@@H](Cc1c[nH]c2ccc(C#N)cc12)C(=O)N[C@@H](CCCNC(=N)N)C(N)=O
B3: VII-55-A (peptide)
chain: Ac-RYY[Ahx]WR-NH2
SMILES: CC(=O)N[C@@H](CCCNC(=N)N)C(=O)N[C@@H](Cc1ccc(O)cc1)C(=O)N[C@@H](Cc1ccc(O)cc1)C(=O)NCCCCCC(=O)N[C@@H](Cc1c[nH]c2ccccc12)C(=O)N[C@@H](CCCNC(=N)N)C(N)=O
B4: VII-4-B (peptide)
chain: [Ac6c]RYYRWR-NH2
modifications: N-terminus assumed
SMILES: N=C(N)NCCC[C@H](NC(=O)[C@H](Cc1c[nH]c2ccccc12)NC(=O)[C@H](CCCNC(=N)N)NC(=O)[C@H](Cc1ccc(O)cc1)NC(=O)[C@H](Cc1ccc(O)cc1)NC(=O)[C@H](CCCNC(=N)N)NC(=O)C1(N)CCCCC1)C(N)=O
B5: IV-33-B (peptide)
chain: Hexanoyl-AYYRWR-NH2
SMILES: CCCCCC(=O)N[C@@H](C)C(=O)N[C@@H](Cc1ccc(O)cc1)C(=O)N[C@@H](Cc1ccc(O)cc1)C(=O)N[C@@H](CCCNC(=N)N)C(=O)N[C@@H](Cc1c[nH]c2ccccc12)C(=O)N[C@@H](CCCNC(=N)N)C(N)=O
B6: IV-21-C (peptide)
chain: Propionyl-AYYRWR-NH2
SMILES: CCC(=O)N[C@@H](C)C(=O)N[C@@H](Cc1ccc(O)cc1)C(=O)N[C@@H](Cc1ccc(O)cc1)C(=O)N[C@@H](CCCNC(=N)N)C(=O)N[C@@H](Cc1c[nH]c2ccccc12)C(=O)N[C@@H](CCCNC(=N)N)C(N)=O
B7: IV-41-B (peptide)
chain: Hexanoyl-RYYRAR-NH2
SMILES: CCCCCC(=O)N[C@@H](CCCNC(=N)N)C(=O)N[C@@H](Cc1ccc(O)cc1)C(=O)N[C@@H](Cc1ccc(O)cc1)C(=O)N[C@@H](CCCNC(=N)N)C(=O)N[C@@H](C)C(=O)N[C@@H](CCCNC(=N)N)C(N)=O
B8: IV-27-B (peptide)
chain: Propionyl-RYYAWR-NH2
SMILES: CCC(=O)N[C@@H](CCCNC(=N)N)C(=O)N[C@@H](Cc1ccc(O)cc1)C(=O)N[C@@H](Cc1ccc(O)cc1)C(=O)N[C@@H](C)C(=O)N[C@@H](Cc1c[nH]c2ccccc12)C(=O)N[C@@H](CCCNC(=N)N)C(N)=O
B9: IV-39-B (peptide)
chain: Hexanoyl-RYYAWR-NH2
SMILES: CCCCCC(=O)N[C@@H](CCCNC(=N)N)C(=O)N[C@@H](Cc1ccc(O)cc1)C(=O)N[C@@H](Cc1ccc(O)cc1)C(=O)N[C@@H](C)C(=O)N[C@@H](Cc1c[nH]c2ccccc12)C(=O)N[C@@H](CCCNC(=N)N)C(N)=O
B10: IV-23-B (peptide)
chain: Propionyl-RAYRWR-NH2
SMILES: CCC(=O)N[C@@H](CCCNC(=N)N)C(=O)N[C@@H](C)C(=O)N[C@@H](Cc1ccc(O)cc1)C(=O)N[C@@H](CCCNC(=N)N)C(=O)N[C@@H](Cc1c[nH]c2ccccc12)C(=O)N[C@@H](CCCNC(=N)N)C(N)=O
B11: IV-35-B (peptide)
chain: Hexanoyl-RAYRWR-NH2
SMILES: CCCCCC(=O)N[C@@H](CCCNC(=N)N)C(=O)N[C@@H](C)C(=O)N[C@@H](Cc1ccc(O)cc1)C(=O)N[C@@H](CCCNC(=N)N)C(=O)N[C@@H](Cc1c[nH]c2ccccc12)C(=O)N[C@@H](CCCNC(=N)N)C(N)=O
B12: IV-29-B (peptide)
chain: Propionyl-RYYRAR-NH2
SMILES: CCC(=O)N[C@@H](CCCNC(=N)N)C(=O)N[C@@H](Cc1ccc(O)cc1)C(=O)N[C@@H](Cc1ccc(O)cc1)C(=O)N[C@@H](CCCNC(=N)N)C(=O)N[C@@H](C)C(=O)N[C@@H](CCCNC(=N)N)C(N)=O
B13: IV-12-B (peptide)
chain: Ac-R[dY]Y[dR]WR-NH2
SMILES: CC(=O)N[C@@H](CCCNC(=N)N)C(=O)N[C@H](Cc1ccc(O)cc1)C(=O)N[C@@H](Cc1ccc(O)cc1)C(=O)N[C@H](CCCNC(=N)N)C(=O)N[C@@H](Cc1c[nH]c2ccccc12)C(=O)N[C@@H](CCCNC(=N)N)C(N)=O

Target: ORL1 (UniProt P41146)
Sequence (P41146 whole entry): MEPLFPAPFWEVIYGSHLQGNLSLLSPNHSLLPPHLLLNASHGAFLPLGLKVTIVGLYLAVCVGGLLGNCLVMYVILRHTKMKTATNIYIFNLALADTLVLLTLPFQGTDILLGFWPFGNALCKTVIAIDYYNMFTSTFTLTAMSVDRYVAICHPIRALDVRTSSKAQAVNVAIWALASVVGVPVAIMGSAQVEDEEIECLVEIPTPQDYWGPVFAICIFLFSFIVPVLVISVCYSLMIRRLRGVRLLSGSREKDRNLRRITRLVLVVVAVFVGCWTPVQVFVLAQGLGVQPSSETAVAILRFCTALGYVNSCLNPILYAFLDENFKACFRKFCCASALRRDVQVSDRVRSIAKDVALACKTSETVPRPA
Assay: competition

In order of falling Ki:
1. B1  41.9 nM
2. B3  39 nM
3. B4  9.25 nM
4. B2  0.3 nM

Target: ORL1 (UniProt P41146)
Assay: competition
Remark: another data set of the same source

In order of falling IC50:
1. B12  1890 nM
2. B6  1780 nM
3. B5  1020 nM
4. B9  1000 nM
5. B7  710 nM
6. B8  400 nM
7. B10  182 nM
8. B11  113 nM

Target: ORL1 (UniProt P41146)
Assay: competition, [3H]nociceptin

B13 gave an IC50 of 1140 nM.
